This note sets out measurements from patent publication US20250136677A1 (ZOETIS SERVICES, published 2025).

Positions count from the first letter of the chain named. Like-named read-outs stand apart in the source and are kept apart here.

The target of test [1] is T1, mutant feline IL-31 15H05 protein (Feline_IL31_15H05_mutant) (feline).
T1 construct: also called feline 15H05 mutant; 15H05 IL-31 mutant
T1 chain: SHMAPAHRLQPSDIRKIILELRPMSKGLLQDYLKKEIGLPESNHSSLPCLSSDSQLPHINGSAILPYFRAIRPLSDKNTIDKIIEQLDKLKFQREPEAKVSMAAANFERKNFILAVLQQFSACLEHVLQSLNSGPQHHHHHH
Description: Biacore, IL-31 protein as surface capture. Here is the method:
(§1) The affinity with which candidate mAbs bind canine and feline IL-31 was determined using surface plasmon resonance (SPR) on a Biacore system (Biocore Life Sciences (GE Healthcare), Uppsala, Sweden). To avoid affinity differences associated with differential surface preparation that can occur when immobilizing antibodies to surfaces; a strategy was employed where IL-31 was directly conjugated to the surface. Immobilization was obtained by amine coupling 5 μg/mL IL-31 using N-hydroxysuccinimide (NHS)/1-Ethyl-3-(3-dimethylaminopropyl) carbodiimide (EDC) chemistry. Chips were quenched with ethanolamine and the affinity with which all candidate mAbs bound to the immobilized IL-31 was evaluated. All curves were fit to a 1:1 model. […] Results for affinity measurements are described herein.
(§2) Table 1 below describes the results for biacore analysis using multiple species of IL-31 protein as a surface capture.
A general note: Surface plasmon resonance follows binding to a sensor surface in real time, without labels.

For test [2], the target named is T2, canine IL-31 protein (Canine_IL31) (canine).
T2 chain: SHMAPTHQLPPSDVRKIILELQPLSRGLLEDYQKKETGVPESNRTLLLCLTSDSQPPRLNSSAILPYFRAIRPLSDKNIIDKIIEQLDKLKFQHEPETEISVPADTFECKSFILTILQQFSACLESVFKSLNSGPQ
Kind of test: cell-based or functional assay.

Test [3] has as its target T3, wildtype feline IL-31 protein (Feline_IL31_wildtype) (feline).
T3 chain: T1 chain with A103P, A105D
Description: cell-based or functional assay.

Test [4] concerns the target T2, canine IL-31 protein (Canine_IL31).
Test [5] has the same target. Kind of test: SPR (Biacore), IL-31 protein as surface capture.
For test [6], the target named is T4, mutant feline IL-31 11E12 protein (Feline_IL31_11E12_mutant) (feline).
T4 construct: also called feline 11E12 mutant; 11E12 IL-31 mutant
T4 chain: T1 chain with D81A, I84A, A103P, A105D
Description: SPR (Biacore), IL-31 protein as surface capture. The protocol:
as §1, §2

Test [7] has as its target T5, equine IL-31 protein (Equine_IL31) (equine).
T5 construct: Recombinant equine IL-31
T5 chain: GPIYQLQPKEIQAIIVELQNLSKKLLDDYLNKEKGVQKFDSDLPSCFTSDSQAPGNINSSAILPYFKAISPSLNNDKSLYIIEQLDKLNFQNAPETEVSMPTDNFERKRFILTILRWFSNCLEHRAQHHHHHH
Description: SPR (Biacore), IL-31 protein as surface capture. Here is the method:
as §1, §2

Test [8] concerns the target T3, wildtype feline IL-31 protein …. Kind of test: SPR (Biacore), IL-31 protein as surface capture. Here is the method:
as §1, §2

For test [9] the target is unchanged. Kind of test: SPR (Biacore), IL-31 on chip, 1:1 fit. The procedure, abridged: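 IL-31 was amine-coupled (NHS/EDC) to the chip at 5 μg/mL and quenched with ethanolamine, and candidate mAbs were flowed over it as analytes. Binding curves were fitted to a 1:1 model.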
Test [10] shares this target. Kind of test: cell-based or functional assay.
Test [11] shares this target. Kind of test: Biacore, feline IL-31 chip, mAb 100 nM, share of points within parent mean +/-3 SD. Set-up: key: % of mutant data points within parent mAb mean ±3 SD. An excerpt:
(§3) The mean response unit of four replicates of the parent mAb+/−3 standard deviations was used to generate parameters to define a threshold of response units comprising both the on- and off-rates antibody binding (FIG. 22). The percentage of data points for each mutant fell within this threshold was then used to define a “% similarity score” (FIG. 23).

For test [12] the target is unchanged. Described as above. Further details: key: % of mutant data points within parent mAb mean ±3 SD.
Text: The region of an antibody responsible for antigen recognition represents the paratope. A paratope is created by a combination of amino acids in the complementarity determining regions (CDRs) of both the heavy and light chain variable regions. The binding between antibody and antigen is often mediated by side chains of CDR residues with side chains or carbohydrate moieties of the antigen. To help define critical side chains involved in antibody recognition alanine scanning mutagenesis was performed on each CDR residue in both the heavy and light chain. These mutants were then individually tested for the ability to bind feline IL-31 using the biacore and evaluated for inhibition of IL-31-mediated signaling in the FCWF-4 cell based assay.
as §3

Test [13] shares this target. Kind of test: cell-based or functional assay.

B1: ZTS-361 (antibody)
heavy: QVLLVQSGAEVRTPGASVKIFCKASGYSFTSYTIHWLRQAPAQGLEWMGNINPTSGYTENNQRFKDRLTLTADTSTNTAYMELSSLRSADTAMYYCARWGFKYDGEWSFDVWGAGTTVTVSSASTTAPSVFPLAPSCGTTSGATVALACLVLGYFPEPVTVSWNSGALTSGVHTFPAVLQASGLYSLSSMVTVPSSRWLSDTFTCNVAHPPSNTKVDKTVRKTDHPPGPKPCDCPKCPPPEAAGAPSIFIFPPKPKDTLSISRTPEVTCLVVDLGPDDSDVQITWFVDNTQVYTAKTSPREEQFNSTYRVVSVLPILHQDWLKGKEFKCKVNSKSLPSPIERTISKAKGQPHEPQVYVLPPAQEELSRNKVSVTCLIKSFHPPDIAVEWEITGQPEPENNYRTTPPQLDSDGTYFVYSKLSVDRSHWQRGNTYTCSVSHEALHSHHTQKSLTQSPGK
light: EIQMTQSPSSLSASPGDRVTITCRASQGISIWLSWYQQKPGNIPKVLINKASNLHIGVPSRFSGSGSGTDFTLTISSLEPEDAATYYCLQSQTYPLTFGGGTKLEIKRSDAQPSVFLFQPSLDELHTGSASIVCILNDFYPKEVNVKWKVDGVVQNKGIQESTTEQNSKDSTYSLSSTLTMSSTEYQSHEKFSCEVTHKSLASTLVKSFQRSECQRE
On to B1, for which, in test [1], the binding result is listed as “no binding”. Moreover, the Inhibition of IL-31 induced pSTAT3 IC50 (µg/ml), Canine IL-31 on Canine DH82 cells in test [2] was found to be 23 µg/ml. Further, the “Inhibition of IL-31 induced pSTAT3 IC50 (µg/ml), Feline IL-31 on Feline FCWF-4 cells” value in test [3] came out at 8.85 µg/ml. The molecule further had an IC50, inhibition of canine IL-31-induced STAT3 phosphorylation, feline FCWF4 cells in test [4] of 38.8 µg/mL. Further, the Kd in test [5] came out at 0.00241 nM; in [6], 17.2 nM; in test [7], 0.625 nM; in [8], 0.625 nM; in [9], 0.474 nM. In addition, in test [9], the koff is 2.18e-05 s⁻¹. This molecule showed a kon in test [9] of 46000 M⁻¹ s⁻¹.

B2: ZTS-1505 (antibody)
heavy: B1 heavy
light: EIQMTQSPSSLSASPGDRVTITCRASQGISIWLSWYQQKPGNIPKVLINKASNLHIGVPSRFSGSGSGTDFTLTISSLEPEDAATYYCLQSQTYPLTFGGGTKLEIKRSDAQPSVFLFQPSLDELHTGSASIVCILNDFYPKEVNVKWKVDGVVQNKGIQESTTEQNSKDSTYSLSSTLTMSSTEYQSHEKFSCEVTHKSLASTLVKSFQRSEC
Consider B2, for which the binding result in test [1] is “no binding”. This molecule also registered an Inhibition of IL-31 induced pSTAT3 IC50 (µg/ml), Canine IL-31 on Canine DH82 cells in test [2] of 21.8 µg/ml. The “Inhibition of IL-31 induced pSTAT3 IC50 (µg/ml), Feline IL-31 on Feline FCWF-4 cells” value in test [3] stood at 4.53 µg/ml. Besides, the “% Inhibition Relative to Parent (pSTAT, FCWF-4 cells)” value in test [10] and in test [13] was 100% in each case. Moreover, the “Binding Similarity score” value in [11] and in test [12] was 97 each time. The Kd in test [5] amounted to 0.00183 nM; in test [6], 19.5 nM; in test [7], 0.575 nM; in test [8], 0.575 nM.

A word on the Kd: it is the free concentration of one partner at which half of the binding sites on the other are occupied at equilibrium, for simple one-to-one binding. The koff is the first-order rate constant of dissociation. The kon is the second-order rate constant of association.
